Assay results reported in the supplement of paper PMC7877785.
± gives the uncertainty stated by the source.

Assay: self-splicing fitness, log relative to wild type (ln ratio); higher = more splicing; Tetrahymena group I intron in knt gene, E. coli kanamycin selection, DiMSum; sequences stand for … in CUCUCU…GGAGGGAAAAGUUAUCAGGCAUGCACCUGGUAGCUAGUCUUUAAACCAAUAGAUUGCAUCGGUUUAAAAGGCAAGACCGUCAAAUUGCGGGAAAGGGGUCAACAGCCGUUCAGUACCAAGUCUCAGGGGAAACUUUGAGAUGGCCUUGCAAAGGGUAUGGUAAUAAGCUGACGGACAUGGUCCUAACCACGCAGCCAAGUCCUAAGUCAACAGAUCUUCUGUUGAUAUGGAUGCAGUUCACAGACUAAAUGUCGGUCGGGGAAGAUGUAUUCUUCUCAUAAGAUAUAGUCGGACCUCUCCUUAAUGGGAGCUAGCGGAUGAAGUGAUGCAACACUGGAGCCGCUGGGAACUAAUUUGUAUGCGAAAGUAUAUUGAUUAGUUUUGGAGUACUCGUGGUCG
In short: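 A randomised library covering all eight P1ex-region intron nucleotides was built with the intron in the knt kanamycin-resistance gene on pET-22b(+) and held in E. coli BL21(DE3). Cells were grown overnight at 37°C or 30°C on LB agar, with or without 25 μg/mL kanamycin, plus 100 μg/mL carbenicillin, 50 μM IPTG and 0.2% rhamnose, and pooled colonies were amplicon-sequenced on an Illumina HiSeq 2500. DiMSum fitness is the error-weighted combination of wild-type-normalised replicate fold changes, kanamycin versus none.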

Row | Sequence | self-splicing fitness (ln) (30 °C) | self-splicing fitness (ln) (37 °C)
1 | UCAAAGCAAUAUUACGCUUU | -3.89 ± 0.46 | -1.72 ± 0.27
2 | UCAAAGCAAUAUUACGGAAC | -4.3 ± 0.32 | –
3 | UCAAAGCAAUAUUACGGACC | – | -2.54 ± 0.32
4 | UCAAAGCAAUAUUACGGAGC | – | -3.53 ± 0.33
5 | UCAAAGCAAUAUUACGGAUG | -2.78 ± 0.08 | -1.32 ± 0.086
6 | UCAAAGCAAUAUUACGGAUU | -3.73 ± 0.24 | -2.26 ± 0.21
7 | UCAAAGCAAUAUUACGGCCC | -3.79 ± 0.47 | -2.18 ± 0.46
8 | UCAAAGCAAUAUUACGGCGU | -0.917 ± 0.065 | -0.201 ± 0.086
9 | UCAAAGCAAUAUUACGGUCG | -0.405 ± 0.069 | -0.439 ± 0.094
10 | UCAAAGCAAUAUUACGGUUU | -3.06 ± 0.21 | -3 ± 0.27
11 | UCAAAGCAAUAUUACGUACC | -3.01 ± 0.3 | -1.69 ± 0.3
12 | UCAAAGCAAUAUUACGUCCU | -3.34 ± 0.29 | -1.98 ± 0.24
13 | UCAAAGCAAUAUUACGUUGC | -3.48 ± 0.19 | -3.23 ± 0.26
14 | UCACAGCAAUAUUACGAUCC | -3.08 ± 0.2 | -2.03 ± 0.22
15 | UCACAGCAAUAUUACGAUUC | -3.61 ± 0.16 | -3.05 ± 0.18
16 | UCACAGCAAUAUUACGCAAA | -2.74 ± 0.19 | -2.91 ± 0.17
17 | UCACAGCAAUAUUACGCAAU | – | -2.13 ± 0.14
18 | UCACAGCAAUAUUACGCCAG | -1.6 ± 0.15 | -0.668 ± 0.25
19 | UCACAGCAAUAUUACGCGCA | -0.0823 ± 0.068 | 0.0608 ± 0.075
20 | UCACAGCAAUAUUACGCGGC | -3.63 ± 0.23 | -2.5 ± 0.28
21 | UCACAGCAAUAUUACGCUAU | – | -2.23 ± 0.21
22 | UCACAGCAAUAUUACGGAAC | -2.98 ± 0.21 | -2.45 ± 0.26
23 | UCACAGCAAUAUUACGGCAG | -2.03 ± 0.12 | -0.996 ± 0.16
24 | UCACAGCAAUAUUACGGGAC | -2.77 ± 0.21 | -1.76 ± 0.18
25 | UCACAGCAAUAUUACGGGCA | -0.496 ± 0.075 | -0.337 ± 0.083

Row | Sequence | self-splicing fitness (ln) (30 °C) | self-splicing fitness (ln) (37 °C)
26 | UCACAGCAAUAUUACGGGGG | -2.39 ± 0.15 | -2.03 ± 0.16
27 | UCACAGCAAUAUUACGUCGA | -0.572 ± 0.068 | -0.734 ± 0.08
28 | UCACAGCAAUAUUACGUCGC | -2.99 ± 0.19 | -2.13 ± 0.19
29 | UCACAGCAAUAUUACGUGAU | -3.64 ± 0.12 | -2.76 ± 0.15
30 | UCACAGCAAUAUUACGUGCG | -0.577 ± 0.056 | -0.105 ± 0.069
31 | UCACAGCAAUAUUACGUGUG | -4.09 ± 0.15 | -2.13 ± 0.1
32 | UCACAGCAAUAUUACGUUAU | -3.61 ± 0.12 | -2.75 ± 0.12
33 | UCACAGCAAUAUUACGUUUC | -3.8 ± 0.19 | -3.02 ± 0.21
34 | UCAGAGCAAUAUUACGAAAG | -2.84 ± 0.36 | -1.6 ± 0.38
35 | UCAGAGCAAUAUUACGAGAG | -3.72 ± 0.27 | -3.27 ± 0.42
36 | UCAGAGCAAUAUUACGAUAA | – | -2.46 ± 0.41
37 | UCAGAGCAAUAUUACGAUAG | -4.05 ± 0.39 | -2.38 ± 0.39
38 | UCAGAGCAAUAUUACGAUAU | – | -2.32 ± 0.33
39 | UCAGAGCAAUAUUACGCACA | -1.74 ± 0.29 | 0.554 ± 0.43
40 | UCAGAGCAAUAUUACGCAGU | -0.644 ± 0.22 | -1.83 ± 0.41
41 | UCAGAGCAAUAUUACGCUAA | – | 1.19 ± 0.3
42 | UCAGAGCAAUAUUACGCUGA | -3.04 ± 0.34 | -2.1 ± 0.37
43 | UCAGAGCAAUAUUACGGUCG | -2.95 ± 0.16 | -1.32 ± 0.14
44 | UCAGAGCAAUAUUACGGUUA | -2.88 ± 0.26 | -2.05 ± 0.22
45 | UCAGAGCAAUAUUACGGUUC | -3.72 ± 0.33 | -1.84 ± 0.21
46 | UCAGAGCAAUAUUACGGUUG | -3.9 ± 0.31 | -2.35 ± 0.26
47 | UCAGAGCAAUAUUACGGUUU | -3.76 ± 0.28 | -2.07 ± 0.18
48 | UCAGAGCAAUAUUACGUGAU | -3.03 ± 0.32 | -2.94 ± 0.26
49 | UCAGAGCAAUAUUACGUGGC | -3.85 ± 0.25 | -2.32 ± 0.26
50 | UCAGAGCAAUAUUACGUUCA | -1.71 ± 0.27 | -2.48 ± 0.39

Row | Sequence | self-splicing fitness (ln) (30 °C) | self-splicing fitness (ln) (37 °C)
51 | UCAGAGCAAUAUUACGUUGA | -2.33 ± 0.12 | -1.54 ± 0.14
52 | UCAUAGCAAUAUUACGAAGU | -3.43 ± 0.16 | -3.51 ± 0.39
53 | UCAUAGCAAUAUUACGACUU | -3.87 ± 0.28 | -2.42 ± 0.39
54 | UCAUAGCAAUAUUACGAGAA | -2.05 ± 0.3 | -2.55 ± 0.36
55 | UCAUAGCAAUAUUACGAUCA | -1.3 ± 0.13 | -0.941 ± 0.16
56 | UCAUAGCAAUAUUACGAUCC | – | -1.7 ± 0.41
57 | UCAUAGCAAUAUUACGCAGU | -4.03 ± 0.36 | -3.4 ± 0.31
58 | UCAUAGCAAUAUUACGCCCA | -2 ± 0.21 | -0.939 ± 0.18
59 | UCAUAGCAAUAUUACGCCCG | -0.515 ± 0.21 | -0.292 ± 0.3
60 | UCAUAGCAAUAUUACGCGGC | -3.53 ± 0.44 | –
61 | UCAUAGCAAUAUUACGCUAC | -2.17 ± 0.21 | -3.42 ± 0.29
62 | UCAUAGCAAUAUUACGCUAU | -2.88 ± 0.39 | -2.08 ± 0.47
63 | UCAUAGCAAUAUUACGGAAA | -2.84 ± 0.41 | -2.4 ± 0.28
64 | UCAUAGCAAUAUUACGGACA | -2.48 ± 0.21 | -0.42 ± 0.15
65 | UCAUAGCAAUAUUACGGACG | -1.17 ± 0.15 | -1.11 ± 0.17
66 | UCAUAGCAAUAUUACGGCCG | -0.395 ± 0.15 | 0.157 ± 0.16
67 | UCAUAGCAAUAUUACGGCGG | -0.555 ± 0.059 | 0.417 ± 0.074
68 | UCAUAGCAAUAUUACGGGAA | -1.35 ± 0.19 | -1.1 ± 0.16
69 | UCAUAGCAAUAUUACGGGAG | -3.39 ± 0.26 | -3.06 ± 0.29
70 | UCAUAGCAAUAUUACGGUGA | -2.39 ± 0.13 | -2 ± 0.12
71 | UCAUAGCAAUAUUACGGUUC | -3.57 ± 0.35 | –
72 | UCAUAGCAAUAUUACGUGUC | -3.2 ± 0.21 | -3.08 ± 0.27
73 | UCAUAGCAAUAUUACGUUUA | -4.13 ± 0.39 | -2.11 ± 0.2
74 | UCAUAGCAAUAUUACGUUUU | -2.81 ± 0.14 | -1.29 ± 0.14
75 | UCCAAGCAAUAUUACGAACU | -2.6 ± 0.15 | -1.06 ± 0.15

Row | Sequence | self-splicing fitness (ln) (30 °C) | self-splicing fitness (ln) (37 °C)
76 | UCCAAGCAAUAUUACGAAUG | -4.26 ± 0.21 | -2.95 ± 0.2
77 | UCCAAGCAAUAUUACGACUG | -3.78 ± 0.16 | -2.6 ± 0.17
78 | UCCAAGCAAUAUUACGAGCA | -0.834 ± 0.08 | -0.0464 ± 0.1
79 | UCCAAGCAAUAUUACGAGUU | -3.75 ± 0.28 | -1.33 ± 0.2
80 | UCCAAGCAAUAUUACGAUCG | -2.65 ± 0.19 | -3.06 ± 0.24
81 | UCCAAGCAAUAUUACGCAUC | -3.02 ± 0.21 | -2.93 ± 0.24
82 | UCCAAGCAAUAUUACGCCUC | -2.33 ± 0.29 | -2.53 ± 0.28
83 | UCCAAGCAAUAUUACGCCUG | -4.15 ± 0.42 | -2.26 ± 0.27
84 | UCCAAGCAAUAUUACGCGAG | -4.03 ± 0.24 | -2.93 ± 0.27
85 | UCCAAGCAAUAUUACGCUGA | -1.43 ± 0.092 | -1.07 ± 0.085
86 | UCCAAGCAAUAUUACGCUGC | -2.94 ± 0.21 | -2.61 ± 0.27
87 | UCCAAGCAAUAUUACGCUUG | -3.72 ± 0.17 | -2.11 ± 0.28
88 | UCCAAGCAAUAUUACGGAAG | -1.85 ± 0.2 | -1.8 ± 0.24
89 | UCCAAGCAAUAUUACGGACG | -4.26 ± 0.2 | -2.82 ± 0.16
90 | UCCAAGCAAUAUUACGGCGU | -1.95 ± 0.091 | -0.529 ± 0.1
91 | UCCAAGCAAUAUUACGGUAA | -0.334 ± 0.067 | 0.257 ± 0.076
92 | UCCAAGCAAUAUUACGUAUU | -3.44 ± 0.19 | -2.46 ± 0.21
93 | UCCAAGCAAUAUUACGUCGG | -1.11 ± 0.074 | -0.182 ± 0.091
94 | UCCAAGCAAUAUUACGUGCA | -0.24 ± 0.083 | 0.425 ± 0.11
95 | UCCAAGCAAUAUUACGUUAG | -1.97 ± 0.13 | -2.91 ± 0.28
96 | UCCAAGCAAUAUUACGUUGU | -3.79 ± 0.16 | -1.7 ± 0.13
97 | UCCAAGCAAUAUUACGUUUA | -3.15 ± 0.12 | -1.98 ± 0.11
98 | UCCAAGCAAUAUUACGUUUG | -3.5 ± 0.15 | -2.97 ± 0.2
